Five molecules from US5854042A, “Sugar-chain synthetase and process for producing the same” (The Institute of Physical and Chemical Research, priority 1993, dated 1998) can be followed below.

Series [1] has as its target Asialo-alpha 1 acid glycoprotein.
Series [2] deals with Asialo-fetuin (Bos taurus (Bovine)) (UniProt P12763).
The target in series [3] is Asialo-ovomucoid.
The target in series [4] is Bovine submaxillary asialo-mucin (bovine).
Series [5] concerns the target Bovine submaxillary mucin (bovine).
The target of series [6] is Fetuin (Bos taurus (Bovine)) (UniProt P12763).
Series [7] deals with Ovomucoid.
Series [8] deals with alpha 1 acid glycoprotein.
The target in series [9] is Asialo-alpha 1 acid glycoprotein. This is another data set of the same source.
Series [10] deals with Asialo-fetuin (Bos taurus (Bovine)) (UniProt P12763). This is another data set of the same source.
Series [11] has as its target Bovine submaxillary asialo-mucin (bovine). The source holds these as a separate data set.
Series [12] addresses Bovine submaxillary mucin (bovine). The source holds these as a separate data set.
Series [13] concerns the target Fetuin (Bos taurus (Bovine)) (UniProt P12763). This is another data set of the same source.
Series [14] concerns the target alpha 1 acid glycoprotein. This is another data set of the same source.
Series [15] addresses Asialo-orosomucoid.
Substrate in series [16]: CC(=O)N[C@H]1C(O)O[C@H](CO)[C@@H](O[C@@H]2O[C@H](CO)[C@H](O)[C@H](O)[C@H]2O)[C@@H]1O
The series can be described thus: cells, lysate or membranes named. As to conditions: other: renatured enzyme after removal of urea by dialysis.

Substrate in series [17]: CC(=O)N[C@H]1[C@H]([C@H](O)[C@H](O)CO)O[C@](OP(=O)(O)OC[C@H]2O[C@@H](n3ccc(N)nc3=O)[C@H](O)[C@@H]2O)(C(=O)O)C[C@@H]1O
The series can be described thus: Sialyltransferase assay, kinetic parameters (Km) of the renatured enzyme. It counts as biochemical, mouse. Particulars: other: renatured enzyme after removal of urea by dialysis; measured with N-acetyllactosamine as the acceptor.

Substrate in series [18]: CC(=O)N[C@H]1C(O)O[C@H](CO)[C@@H](O[C@@H]2O[C@H](CO)[C@H](O)[C@H](O)[C@H]2O)[C@@H]1O
Description: purified protein, by the assay type. As to conditions: pH 6.0; 37.0 °C.

Substrate in series [19]: CC(=O)N[C@H]1[C@H]([C@H](O)[C@H](O)CO)O[C@](OP(=O)(O)OC[C@H]2O[C@@H](n3ccc(N)nc3=O)[C@H](O)[C@@H]2O)(C(=O)O)C[C@@H]1O
The series can be described thus: purified protein, by the assay type. As to conditions: other: measured with N-acetyllactosamine as the acceptor; pH 6.0; 37.0 °C.

Turning to “GalNAc alpha 2,6-sialyltransferase P-B3 (enzyme)”, the Acceptor substrate specificity, pmol/h/µl enzyme fraction ([14C]NeuAc transfer) was 1.2 pmol/h/µL in series [1]; 35 pmol/h/µL in series [2]; 1 pmol/h/µL in series [3]; 5.2 pmol/h/µL in [4]; 0.5 pmol/h/µL in series [5]; 28 pmol/h/µL in [6]. Further, the Acceptor substrate specificity, pmol/h/µl enzyme fraction ([14C]NeuAc transfer) in series [7] and in [8] was under 0.5 pmol/h each time.
The term Km denotes the concentration of substrate that gives half-maximal velocity. In the case of “Renatured mouse Gal beta 1,4GlcNAc alpha 2,6-sialyltransferase (from UniProt Q64685) (enzyme)”, the Relative Activity to Gal β 1,4GlcNAc (relative to Gal β 1,4GlcNAc) is 2.1 in series [9], 1.5 in series [10], 0.25 in series [13] and 0.1 in series [14]. The Relative Activity to Gal β 1,4GlcNAc (% of the control) in series [11] and in series [12] was under 2 each time. Further, in series [15], the Km was determined as 400 µM.
Turning to “Rat liver Gal beta 1,4GlcNAc alpha 2,6-sialyltransferase (from UniProt P13721) (enzyme)”, the figures for the Relative Activity to Gal β 1,4GlcNAc (relative to Gal β 1,4GlcNAc) in series [9], in series [10] and in series [14] were 1, 0.97 and 0.1, respectively. Besides, the Relative Activity to Gal β 1,4GlcNAc (% of the control) in [11], in series [12] and in series [13] was under 2 each time. Moreover, in series [15], the Km was determined as 200 µM.

B1: mouse Gal β 1,4GlcNAc α 2,6-sialyltransferase, recombinant soluble form lacking the cytosolic and transmembrane domains (29th amino acid residue to C-terminal … (protein)
chain: GSDYEALTLQAKVFQMPKSQEKVAVGPAPQAVFSNSKQDPKEGVQILSYPRVTAKVKPQPSLQVWDKDSTYSKLNPRLLKIWRNYLNMNKYKVSYKGPGPGVKFSVEALRCHLRDHVNVSMIEATDFPFNTTEWEGYLPKENFRTKAGPWHKCAVVSSAGSLKNSQLGREIDNHDAVLRFNGAPTDNFQQDVGTKTTIRLVNSQLVTTEKRFLKDSLYTEGILILWDPSVYHADIPQWYQKPDYNFFETYKSYRRLHPSQPFYILKPQMPWELWDIIQEISPDLIQPNPPSSGMLGIIIMMTLCDQVDIYEFLPSKRKTDVCYYHQKFFDSACTMGAYHPLLFEKNMVKHLNEGTDEDIYLFGKATLSGFRNNRC
On to B1, for which the Km in [16] amounted to 6500 µM; in [17], 80 µM.

B2: Rat liver Gal β 1,4GlcNAc α 2,6-sialyltransferase (obtained from Sigma) (Rattus norvegicus) (protein)
chain: MIHTNLKKKFSLFILVFLLFAVICVWKKGSDYEALTLQAKEFQMPKSQEKVAMGSASQVVFSNSKQDPKEDIPILSYHRVTAKVKPQPSFQVWDKDSTYSKLNPRLLKIWRNYLNMNKYKVSYKGPGPGVKFSVEALRCHLRDHVNVSMIEATDFPFNTTEWEGYLPKENFRTKVGPWQRCAVVSSAGSLKNSQLGREIDNHDAVLRFNGAPTDNFQQDVGSKTTIRLMNSQLVTTEKRFLKDSLYTEGILIVWDPSVYHADIPKWYQKPDYNFFETYKSYRRLNPSQPFYILKPQMPWELWDIIQEISADLIQPNPPSSGMLGIIIMMTLCDQVDIYEFLPSKRKTDVCYYHQKFFDSACTMGAYHPLLFEKNMVKHLNEGTDEDIYLFGKATLSGFRNIRC
For B2, the Km was 5000 µM in [18] and 40 µM in series [19].
